Target: T1, human trkC (human, UniProt Q16288 32-429, limits assumed)
T1 construct: also called htrkC; trkC receptor
Assay: BIAcore analysis (SPR); format not stated

B1: humanized anti-trkC agonist antibody A5 (antibody, V domains shown)
VH: QVQLVQSGAEVKKPGASVKVSCKASGYTFTSYRIHWVRQAPGQGLEWMGEIYPSNARTNYNEKFKSRVTMTRDTSTSTVYMELSSLRSEDTAVYYCARKYYYGNTRRSWYFDVWGQGTTVTVS
VL: DIQMTQSPSSLSASVGDRVTITCRASESIDNYGISFLAWYQQKPGKAPKLLIYAASNRGSGVPSRFSGSGSGTDFTFTISSLQPEDIATYYCQQSKTVPRTFGQGTKLEIKR
notes: also called humanized monoclonal antibody A5
Kd: ~0.28 nM

B2: mouse anti-trkC agonist monoclonal antibody 2256 (antibody, V domains shown)
VH: QVQLQQPGAELVKPGASVKLSCKASGYTFTSYWMHWVKQRPGQGLEWIGEIYPSNGRTNYNEKFKSKATLTVDKSSSTAYMQLSSLTSEDSAVYYCARKYYYGNSYRSWYFDVWGAGTTLTVS
VL: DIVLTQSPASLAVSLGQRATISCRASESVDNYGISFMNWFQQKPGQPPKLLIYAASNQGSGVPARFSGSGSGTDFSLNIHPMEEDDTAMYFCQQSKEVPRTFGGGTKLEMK
Kd: ~40 nM
